Target: CD122/CD132 complex (UniProt P14784)
Experiment: cell-based or functional assay

CD122/CD132 complex, sequence (P14784 27-551 limits assumed, chain 1 of 2): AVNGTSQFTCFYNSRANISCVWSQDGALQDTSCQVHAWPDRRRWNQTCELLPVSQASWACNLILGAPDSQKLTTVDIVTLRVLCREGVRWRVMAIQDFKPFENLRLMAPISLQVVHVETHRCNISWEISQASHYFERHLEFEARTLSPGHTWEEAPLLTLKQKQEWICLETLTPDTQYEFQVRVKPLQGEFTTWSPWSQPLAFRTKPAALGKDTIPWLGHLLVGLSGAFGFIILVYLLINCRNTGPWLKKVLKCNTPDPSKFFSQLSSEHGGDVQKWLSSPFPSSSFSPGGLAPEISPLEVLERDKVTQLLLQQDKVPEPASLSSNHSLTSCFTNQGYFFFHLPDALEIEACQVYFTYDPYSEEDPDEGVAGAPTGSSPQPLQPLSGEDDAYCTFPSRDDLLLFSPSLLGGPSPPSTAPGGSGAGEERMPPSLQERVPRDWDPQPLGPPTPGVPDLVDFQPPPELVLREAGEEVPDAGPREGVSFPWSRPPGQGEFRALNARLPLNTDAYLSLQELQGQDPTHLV
CD122/CD132 complex, sequence (P31785 23-369 limits assumed, chain 2 of 2, further chain): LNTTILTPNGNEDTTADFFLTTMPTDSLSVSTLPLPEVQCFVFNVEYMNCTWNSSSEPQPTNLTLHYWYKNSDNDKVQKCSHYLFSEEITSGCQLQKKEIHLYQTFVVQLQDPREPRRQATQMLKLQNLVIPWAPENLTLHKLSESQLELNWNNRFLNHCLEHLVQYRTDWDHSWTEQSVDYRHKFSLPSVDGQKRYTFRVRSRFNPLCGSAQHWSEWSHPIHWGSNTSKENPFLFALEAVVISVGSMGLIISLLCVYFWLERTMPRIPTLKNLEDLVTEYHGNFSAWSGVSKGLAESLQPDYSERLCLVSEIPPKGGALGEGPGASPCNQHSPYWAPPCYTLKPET

Row | EC50, IL2 reporter assay (HEK 293 reporter cells, SEAP, absorbance at 650 nM) | Substance
1 | 0.066 nM | Fc-IL15×Fc-IL15Rα sushi domain fusion protein (Fc fusion)
2 | 0.021 nM | Recombinant IL-15 (PeproTech 200-15) (from UniProt P40933 49-162) (ligand)
